94 variants from the supplement of paper PMC10567573 can be followed below.

The chains are these.
B1: MLL5 (parent)
chain: DCMGIDRQHIPDTYLCERCQPRNL
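Also: lentivirally expressed fusions sorted by FACS into six bins by GFP to DsRed ratio, PSI derived from sequencing read proportions per bin multiplied by bin number.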

The variants in the data set derive from B1. The experiment in a line: protein stability index of a GFP-peptide fusion (GPS, HEK-293T) (PSI 1-6); higher = more stable. The conditions noted are these: c terminus: a fixed tail appended.
DCMGIDRQHIPDTYLCERCQPRNK [L24K]: the protein stability index was determined as 4.2.
Take DCMGIDRQHIPDTYLCERCQPRNH [L24H]: the protein stability index was found to be 2.91.
As to DCMGIDRQHIPDTYLCERCQPRNE [L24E], the protein stability index came to 3.44.
With DCMGIDRQHIPDTYLCERCQPRNN [L24N], the protein stability index turned out to be 3.26.
DCMGIDRQHIPDTYLCERCQPRNY [L24Y]: the protein stability index came to 2.86.
The value for DCMGIDRQHIPDTYLCERCQPRNM [L24M] was 2.69; that for DCMGIDRQHIPDTYLCERCQPRNA [L24A] was 3.55.
For the variant DCMGIDRQHIPDTYLCERCQPRNW [L24W], the protein stability index amounted to 2.77.
The value for DCMGIDRQHIPDTYLCERCQPRNC [L24C] was 3.24; that for DCMGIDRQHIPDTYLCERCQPRNG [L24G] was 3.73.
The value for DCMGIDRQHIPDTYLCERCQPRNT [L24T] was 3.14.
The value for DCMGIDRQHIPDTYLCERCQPRNI [L24I] was 2.36; that for DCMGIDRQHIPDTYLCERCQPRNP [L24P] was 2.64; that for DCMGIDRQHIPDTYLCERCQPRNV [L24V] was 2.84.
In the case of DCMGIDRQHIPDTYLCERCQPRNF [L24F], the protein stability index was 2.71.
DCMGIDRQHIPDTYLCERCQPRNQ [L24Q]: the protein stability index turned out to be 3.51.
For the variant DCMGIDRQHIPDTYLCERCQPRNS [L24S], the protein stability index is 3.84.
Take DCMGIDRQHIPDTYLCERCQPRND [L24D]: the protein stability index is 3.88.
In the case of DCMGIDRQHIPDTYLCERCQPRNR [L24R], the protein stability index turned out to be 2.62.
DCMGIDRQHIPDTYLCERCQVRNL [P21V]: the protein stability index came to 2.48.
To DCMGIDRQHIPDTYLCERCQWRNL [P21W] belongs 1.7.
Turning to DCMGIDRQHIPDTYLCERCQRRNL [P21R], the protein stability index was found to be 3.4.
The value for DCMGIDRQHIPDTYLCERCQQRNL [P21Q] was 3.93; that for DCMGIDRQHIPDTYLCERCQKRNL [P21K] was 3.53; that for DCMGIDRQHIPDTYLCERCQMRNL [P21M] was 3.62.
Take DCMGIDRQHIPDTYLCERCQSRNL [P21S]: the protein stability index was 2.93.
As to DCMGIDRQHIPDTYLCERCQHRNL [P21H], the protein stability index stood at 2.76.
To DCMGIDRQHIPDTYLCERCQTRNL [P21T] belongs 2.95; to DCMGIDRQHIPDTYLCERCQNRNL [P21N], 3.21.
To DCMGIDRQHIPDTYLCERCQCRNL [P21C] belongs 3.21; to DCMGIDRQHIPDTYLCERCQERNL [P21E], 4; to DCMGIDRQHIPDTYLCERCQDRNL [P21D], 4.21.
To DCMGIDRQHIPDTYLCERCQYRNL [P21Y] belongs 2.88; to DCMGIDRQHIPDTYLCERCQARNL [P21A], 3.58.
Consider DCMGIDRQHIPDTYLCERCQFRNL [P21F], for which the protein stability index worked out at 2.49.
DCMGIDRQHIPDTYLCERCQGRNL [P21G]: the protein stability index came to 3.45.
Take DCMGIDRQHIPDTYLCERCQLRNL [P21L]: the protein stability index was determined as 3.61.
As to DCMGIDRQHIPDTYLCERCQIRNL [P21I], the protein stability index turned out to be 2.5.
The value for DCMGIDRQHIPDTYLCERCCPRNL [Q20C] was 2.69; that for DCMGIDRQHIPDTYLCERCDPRNL [Q20D] was 4.22.
Turning to DCMGIDRQHIPDTYLCERCHPRNL [Q20H], the protein stability index was determined as 2.8.
The value for DCMGIDRQHIPDTYLCERCAPRNL [Q20A] was 2.81; that for DCMGIDRQHIPDTYLCERCTPRNL [Q20T] was 3.53.
To DCMGIDRQHIPDTYLCERCPPRNL [Q20P] belongs 3.24; to DCMGIDRQHIPDTYLCERCEPRNL [Q20E], 3.21.
In the case of DCMGIDRQHIPDTYLCERCGPRNL [Q20G], the protein stability index stood at 2.79.
The value for DCMGIDRQHIPDTYLCERCKPRNL [Q20K] was 2.68; that for DCMGIDRQHIPDTYLCERCYPRNL [Q20Y] was 2.94.
Consider DCMGIDRQHIPDTYLCERCNPRNL [Q20N], for which the protein stability index is 3.33.
In the case of DCMGIDRQHIPDTYLCERCIPRNL [Q20I], the protein stability index was determined as 2.55.
To DCMGIDRQHIPDTYLCERCFPRNL [Q20F] belongs 2.37; to DCMGIDRQHIPDTYLCERCMPRNL [Q20M], 3.26.
The value for DCMGIDRQHIPDTYLCERCVPRNL [Q20V] was 2.79; that for DCMGIDRQHIPDTYLCERCLPRNL [Q20L] was 1.99; that for DCMGIDRQHIPDTYLCERCWPRNL [Q20W] was 2.27.
The value for DCMGIDRQHIPDTYLCERCSPRNL [Q20S] was 3.03; that for DCMGIDRQHIPDTYLCERCQPRAL [N23A] was 2.09; that for DCMGIDRQHIPDTYLCERCQPRHL [N23H] was 2.36.
For DCMGIDRQHIPDTYLCERCQPRIL [N23I], the protein stability index turned out to be 2.29.
In the case of DCMGIDRQHIPDTYLCERCQPRVL [N23V], the protein stability index came to 2.
To DCMGIDRQHIPDTYLCERCQPRQL [N23Q] belongs 2.62; to DCMGIDRQHIPDTYLCERCQPRFL [N23F], 2.58; to DCMGIDRQHIPDTYLCERCQPRDL [N23D], 3.08.
As for DCMGIDRQHIPDTYLCERCQPREL [N23E], the protein stability index worked out at 2.86.
For the variant DCMGIDRQHIPDTYLCERCQPRYL [N23Y], the protein stability index is 1.94.
The value for DCMGIDRQHIPDTYLCERCQPRML [N23M] was 2.83; that for DCMGIDRQHIPDTYLCERCQPRTL [N23T] was 2.61.
To DCMGIDRQHIPDTYLCERCQPRRL [N23R] belongs 1.53; to DCMGIDRQHIPDTYLCERCQPRWL [N23W], 2.49.
To DCMGIDRQHIPDTYLCERCQPRPL [N23P] belongs 3.1; to DCMGIDRQHIPDTYLCERCQPRGL [N23G], 3.
Consider DCMGIDRQHIPDTYLCERCQPRCL [N23C], for which the protein stability index came to 1.85.
The value for DCMGIDRQHIPDTYLCERCQPRSL [N23S] was 3.07.
To DCMGIDRQHIPDTYLCERCQPRLL [N23L] belongs 2.5; to DCMGIDRQHIPDTYLCERCQPRKL [N23K], 2.73.
The value for DCMGIDRQHIPDTYLCERCQPLNL [R22L] was 3.31; that for DCMGIDRQHIPDTYLCERCQPVNL [R22V] was 2.67.
For DCMGIDRQHIPDTYLCERCQPCNL [R22C], the protein stability index turned out to be 3.66.
With DCMGIDRQHIPDTYLCERCQPPNL [R22P], the protein stability index was 3.34.
The value for DCMGIDRQHIPDTYLCERCQPKNL [R22K] was 3.19; that for DCMGIDRQHIPDTYLCERCQPYNL [R22Y] was 2.49.
With DCMGIDRQHIPDTYLCERCQPTNL [R22T], the protein stability index stood at 3.34.
To DCMGIDRQHIPDTYLCERCQPSNL [R22S] belongs 3.31; to DCMGIDRQHIPDTYLCERCQPENL [R22E], 3.98.
The value for DCMGIDRQHIPDTYLCERCQPHNL [R22H] was 2.72.
The value for DCMGIDRQHIPDTYLCERCQPANL [R22A] was 3.57.
As for DCMGIDRQHIPDTYLCERCQPGNL [R22G], the protein stability index stood at 3.28.
The value for DCMGIDRQHIPDTYLCERCQPQNL [R22Q] was 3.19.
To DCMGIDRQHIPDTYLCERCQPDNL [R22D] belongs 3.42.
As to DCMGIDRQHIPDTYLCERCQPFNL [R22F], the protein stability index stood at 2.35.
The value for DCMGIDRQHIPDTYLCERCQPINL [R22I] was 2.9.
To DCMGIDRQHIPDTYLCERCQPMNL [R22M] belongs 1.86.
The value for DCMGIDRQHIPDTYLCERCQPNNL [R22N] was 2.94; that for DCMGIDRQHIPDTYLCERCQPWNL [R22W] was 1.99.
